Measurements as given in patent US20230357389A1 (Innovent, published 2023).
Positions count from the first letter of the chain named.

Tests used:
[1] = target: T1, human CLDN18.2 on the cell surface (human, UniProt P56856-2 1-261); test: cell-based or functional assay
[2] = target: T2, human CLDN18.1 on the cell surface (human, UniProt P56856 1-261); test: flow cytometry (FACS) titration on CHO-hCLDN18.1 cells, PE anti-human Fc secondary antibody
T2 construct: whole, on cells; also called CHO-hCLDN18.1
Experimental: (§1) Specifically, the cells to be tested (CHO-hCLDN18.2 and CHO-hCLDN18.1) obtained in Example 1 were counted and diluted to 1×10⁶ cells/ml, added to the U-shaped bottom 96-well plate at 100 μl/well, and then centrifuged at 500 g for 5 min before the cell culture medium was removed. […] The initial concentration of the antibody was 900 nM, and it was diluted three times serially, a total of 10 concentration points before leaving it on ice for 30 min, and removing the supernatant at 500 g for 5 min, and washing the cells with PBS once before adding goat anti-human Fc PE-labeled secondary antibody (Southern Biotech, J2815-5H87B) at 100 μl/well, and incubating in dark on ice for 30 min, removing the supernatant at 500 g for 5 min, and washing the cells with PBS once. 50 μl 1×PBS was used to resuspend cells and FACS was used for detection. GraphPad Prism software was used to analyze the experimental data and get FIG. 1 and FIG. 2.

[3] = target: T1, human CLDN18.2 on the cell surface; test: flow cytometry (FACS) titration on CHO-hCLDN18.2 cells, PE anti-human Fc secondary antibody; the EC50 table prints no unit, nM is taken from the axis Log[Conc.(nM)]
Experimental: as §1

[4] = target: T3, Human Claudin 18.2 (GenScrip, P50251802) (human, UniProt P56856-2 1-261, limits assumed); test: SPR (Biacore T200), CLDN18.2 amine-coupled to chip, antibody as analyte, 1:1 model
T3 construct: Bought protein; also called human CLDN18.2
Experimental: After coupling, 1 M ethanolamine was injected to seal the remaining activation sites. The binding and dissociation between the chip surface antigen and the antibody in the mobile phase were detected by Biocore (GE Healthcare, T200) according to the manufacturer's instructions to obtain the affinity and kinetic constants. The serially diluted antibody (0-100 nM) flowed through the chip surface in order from low concentration to high concentration, with binding time of 180 s and dissociation time of 600 s. Finally, 10 mM Glycine pH 1.5 (GE Healthcare, BR-1003-54) was used to regenerate the chip. The resulting data were analyzed using the Biocore T200 analysis software and the dynamic analysis was conducted using the 1:1 combination model.

[5] = target: T1, human CLDN18.2 on the cell surface; test: flow cytometry (FACS) titration on NUGC-4 gastric cancer cells
[6] = target: T1, human CLDN18.2 on the cell surface; test: flow cytometry (FACS) titration on DAN-G-hCLDN18.2 pancreatic cancer cells
[7] = target: T4, human CD3 complex on T cells (human, UniProt P07766 23-207; P04234 22-171; P09693 23-182; P20963 22-164); test: flow cytometry on Jurkat cells (human CD3 complex), PE anti-human Fc secondary antibody; the EC50 table prints no unit, nM is taken from the axis Concentration of antibody (nM)
T4 construct: whole, on cells; also called CD3 at the cellular level; Jurkat cells
T4 sequence (P07766 23-207, chain 1 of 4): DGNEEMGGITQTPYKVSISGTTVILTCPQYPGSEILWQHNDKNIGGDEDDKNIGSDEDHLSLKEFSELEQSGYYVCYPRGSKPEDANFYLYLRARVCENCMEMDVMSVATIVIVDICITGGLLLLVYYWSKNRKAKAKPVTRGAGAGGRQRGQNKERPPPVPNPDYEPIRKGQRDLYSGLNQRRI
T4 sequence (P04234 22-171, chain 2 of 4): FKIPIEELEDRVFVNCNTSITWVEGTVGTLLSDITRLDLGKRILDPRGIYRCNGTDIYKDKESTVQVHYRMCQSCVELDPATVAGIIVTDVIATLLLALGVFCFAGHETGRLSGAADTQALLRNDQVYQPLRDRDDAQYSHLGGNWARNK
T4 sequence (P09693 23-182, chain 3 of 4): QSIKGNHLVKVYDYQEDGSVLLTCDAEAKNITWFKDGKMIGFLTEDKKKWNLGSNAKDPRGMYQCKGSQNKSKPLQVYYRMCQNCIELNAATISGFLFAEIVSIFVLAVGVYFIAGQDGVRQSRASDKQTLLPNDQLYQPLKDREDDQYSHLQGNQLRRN
T4 sequence (P20963 22-164, chain 4 of 4): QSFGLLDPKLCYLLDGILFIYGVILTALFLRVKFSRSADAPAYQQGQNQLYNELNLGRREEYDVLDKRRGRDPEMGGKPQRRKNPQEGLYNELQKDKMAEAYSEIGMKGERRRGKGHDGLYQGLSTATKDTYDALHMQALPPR
Source text: Jurkat cells were immortalized human T lymphocytes, which expressed human CD3 complex. The cell line was used to detect the binding of the antibody of invention and the cell.

B1: bispecific antibody 030 (CLDN18.2 x CD3) (bispecific antibody, human IgG1, kappa, lambda, L234A L235A)
heavy 1: not shown
light 1: not shown
heavy 2: not shown
light 2: QAVVTQEPSLTVSPGGTVTLTCRSSTGAVTTSNYANWVQQKPGQAPRGLIGGTNKRAPGVPARFSGSLLGDKAALTLLGAQPEDEAEYYCALWYSNLWVFGQGTKLTVLGQPKAAPSVTLFPPSSEELQANKATLVCLISDFYPGAVTVAWKADSSPVKAGVETTTPSKQSNNKYAASSYLSLTPEQWKSHRSYSCQVTHEGSTVEKTVAPTECS
Question: With B1 as the binder, how does the “EC50 of PBMC-mediated killing of gastric cancer cell NUGC-4” value [1] read?
Answer: The value was under 0.001 nM.

Question: What about the “EC50 of PBMC-mediated killing of pancreatic cancer cell DAN-G-hCLDN18.2” value [1] of the same binder?
Answer: The value was under 0.1 pM.

B2: bispecific antibody 033 (CLDN18.2 x CD3) (bispecific antibody, human IgG1, kappa, lambda, L234A L235A)
heavy 1: not shown
light 1: not shown
heavy 2: not shown
light 2: B1 light 2
Question: With B2 as the binder, how does the “killing activity on NUGC-4 and DAN-G-hCLDN18.2 relative to 030 and 032” value [1] read?
Answer: The value was ~1000 times lower than 030 and 032.

B3: bispecific antibody 032 (CLDN18.2 x CD3) (bispecific antibody, human IgG1, kappa, lambda, L234A L235A)
heavy 1: not shown
light 1: not shown
heavy 2: not shown
light 2: B1 light 2
Question: How did the “EC50 of PBMC-mediated killing of gastric cancer cell NUGC-4” value [1] turn out when B3 was run?
Answer: The value was under 0.001 nM.

Question: What about the “EC50 of PBMC-mediated killing of pancreatic cancer cell DAN-G-hCLDN18.2” value [1] of the same binder?
Answer: The value was under 0.1 pM.

B4: anti-CLDN18.2 monoclonal antibody HB37A6 (antibody, human IgG1, kappa, V domains shown)
VH: EVQLLDSGGGLVQPGGSLRLSCAASGFTFSSYVMSWVRQAPGKGLNWVSTISHSGGSTYYADSVKGRFTISRDNSKNTLYLQMNSLRAEDTAVYYCAIDAPYYDILTGYRYWGQGTLVTVSS
VL: not shown
notes: also called whole human antibody HB37A6
Question: Does B4 bind [2]?
Answer: Result: no binding

Question: What about the EC50 [3] of the same binder?
Answer: The EC50 was 5.51 nM.

Question: And the Kd [4]?
Answer: The Kd was 0.72 nM.

Question: What about the koff [4] of the same binder?
Answer: The koff was 0.000306 s⁻¹.

Question: What about the kon [4] of the same binder?
Answer: The kon was 425000 M⁻¹ s⁻¹.

Question: And the “EC50 (read off the curve)” value [5]?
Answer: The value was about 1 nM.

B5: control antibody zolbetuximab (antibody, human IgG1, kappa, V domains shown)
VH: QVQLQQPGAELVRPGASVKLSCKASGYTFTSYWINWVKQRPGQGLEWIGNIYPSDSYTNYNQKFKDKATLTVDKSSSTAYMQLSSPTSEDSAVYYCTRSWRGNSFDYWGQGTTLTVSS
VL: DIVMTQSPSSLTVTAGEKVTMSCKSSQSLLNSGNQKNYLTWYQQKPGQPPKLLIYWASTRESGVPDRFTGSGSGTDFTLTISSVQAEDLAVYYCQNDYSYPFTFGSGTKLEIKR
notes: also called Zmab; positive control antibody Zmab
Question: Which results are given for B5?
Answer: EC50 (read off the curve) [6]: ~2 nM; EC50 [3]: 3.31 nM; EC50 (read off the curve) [5]: ~3 nM

B6: anti-CD3 monoclonal antibody HzSP34.87 (antibody, human IgG1, lambda, L234A L235A, V domains shown)
VH: EVQLVESGGGLVQPGGSLKLSCAASGFTFNTYAMNWVRQASGKGLEWVGRIRSKYNNYATYYADSVKDRFTISRDDSKSTLYLQMNSLKTEDTAVYYCARHYNFGQSYVSWFAYWGQGTTVTVSS
VL: QAVVTQEPSLTVSPGGTVTLTCRSSTGAVTTSNYANWVQQKPGQAPRGLIGGTNKRAPGVPARFSGSLLGDKAALTLLGAQPEDEAEYYCALWYSNLWVFGQGTKLTVLG
Question: B6 was tested. Which EC50 [7] did it give?
Answer: The EC50 was 3.42 nM.

B7: anti-CD3 monoclonal antibody HzSP34.97 (antibody, human IgG1, lambda, L234A L235A, V domains shown)
VH: B6 VH with Y55A, N56G, N57G, Y102G
VL: B6 VL
Question: For B7, which EC50 [7] is on record?
Answer: The EC50 was 3 nM.
